One block for each binder: values may come before it.
Experiments:
[1] = target: T1, LAMP2 (endogenous) (UniProt P13473 29-410, limits assumed, glycosylated (binding told as glycan-dependent)); assay: co-IP, anti-GFP IP of GFP-tagged galectins, blot for endogenous LAMP2 (FIG. S2B)
T1 construct: Integral lysosomal membrane glycoprotein
From the text: (B) Co-IP analysis of galectins and LAMP2. Cells expressing GFP-tagged galectins were subjected to anti-GFP immunoprecipitation followed by immunoblotting for endogenous LAMP2. (C) Schematic, strategy for stable HeLa Flp-In Gal9^Tet-ON which stably express mCherry-Gal9 induced by tetracycline. HeLa Flp-In Gal9^Tet-ON cells treated with LLOMe in a time dependent manner quantified by HCM. (D) HCM visualization of mCherry-Gal9 localization relative to LAMP2-positive lysosomes. Cells as in (C) were treated with LLOMe for 30 min in full medium and immunostained for endogenous LAMP2 and mCherry Gal9. (E) Immunofluorescence confocal microscopy visualization of mCherry-Gal9 localization relative to LAMP2-positive lysosomes. Cells as in (D) immunostained for endogenous LAMP2 and mCherry Gal9. Scale bar, 10 μM. (F) HCM visualization of mCherry-Gal9 localization relative to endogenous Ub puncta. Cells as in (C) were treated with LLOMe for 30 min in full medium and immunostained for endogenous Ub and mCherry Gal9. (G) Immunofluorescence confocal microscopy visualization of mcherry-Gal9 localization relative to endogenous Ub and LAMP1-positive lysosomes. Cells as in (C) were treated with LLOMe for 30 min in full medium and immunostained for endogenous Ub, LAMP1 and mCherry Gal9. Scale bar, 10 μM. […]

[2] = target: T2, USP9X (endogenous) (UniProt Q93008 1-2554, limits assumed); assay: co-IP, anti-FLAG IP, blot for endogenous USP9X, HEK293T (FIG. 3C)
T2 construct: also called deubiquitinating enzyme USP9X; DUB USP9X

[3] = target: T1, LAMP2 (endogenous); assay: co-IP, anti-FLAG IP, blot for endogenous LAMP2, HEK293T, 1 mM LLOMe 30 min (FIG. 2B)
Protocol: (A) APEX2 proximity biotinylation analysis. […] Biotinylated proteins were then affinity-isolated on streptavidin beads and analyzed by immunoblotting in response to LLOMe. (B) Co-immunoprecipitation (Co-IP) analysis of interactions between LAMP2 and Gal9. HEK293T cells expressing FLAG-tagged Gal9 or glycan recognition mutant forms of Gal9 (individual R65A, R239A, or double/combined R65A/R239A were treated with 1 mM LLOMe for 30 min in full medium. IP, anti-FLAG antibody; immunoblotting with endogenous LAMP2. (C) Immunofluorescence confocal microscopy visualization of Gal9 puncta in Hula cells transfected with FLAG-Gal9^WT or double mutant FLAG-Gal9^{R65A/R239A} and treated with lysosomal damaging agent (1 mM LLOMe) in full medium for 30 min. Cells were immunostained for FLAG-Gal9. Scale bar, 10 μM . (D) Analysis of FLAG-Gal9 puncta formation in Huh7 WT cells transfected with FLAG-Gal9 and respective mutants. Cells as in (C) were treated as in (C), measured by FICM (blue: nuclei, Hoechst 33342; green: anti-FLAG antibody, Alexa-488). White masks, computer algorithm-defined cell boundaries; green masks, computer-identified Gal9 puncta. (E) Immunofluorescence confocal microscopy visualization of Ub puncta in Gal9WT^Huh7 and Gal9KO^Huh7 cells complemented with FLAG-Gal9^WT or FLAG-Gal9^{R65A/R239A}. […] (F) Endogenous Ub puncta quantified by HCM. […]

T1 sequence (P13473 29-410 limits assumed): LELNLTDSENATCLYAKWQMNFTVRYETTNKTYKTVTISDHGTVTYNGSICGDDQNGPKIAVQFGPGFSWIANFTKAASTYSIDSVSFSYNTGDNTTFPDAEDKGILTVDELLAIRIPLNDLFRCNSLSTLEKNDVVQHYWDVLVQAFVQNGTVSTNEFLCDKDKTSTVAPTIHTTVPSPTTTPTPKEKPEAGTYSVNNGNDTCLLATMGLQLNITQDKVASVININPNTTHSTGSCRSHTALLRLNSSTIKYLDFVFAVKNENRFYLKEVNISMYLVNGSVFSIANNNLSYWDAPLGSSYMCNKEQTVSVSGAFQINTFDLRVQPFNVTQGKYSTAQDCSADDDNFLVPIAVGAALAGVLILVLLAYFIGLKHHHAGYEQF
T2 sequence (Q93008 whole entry): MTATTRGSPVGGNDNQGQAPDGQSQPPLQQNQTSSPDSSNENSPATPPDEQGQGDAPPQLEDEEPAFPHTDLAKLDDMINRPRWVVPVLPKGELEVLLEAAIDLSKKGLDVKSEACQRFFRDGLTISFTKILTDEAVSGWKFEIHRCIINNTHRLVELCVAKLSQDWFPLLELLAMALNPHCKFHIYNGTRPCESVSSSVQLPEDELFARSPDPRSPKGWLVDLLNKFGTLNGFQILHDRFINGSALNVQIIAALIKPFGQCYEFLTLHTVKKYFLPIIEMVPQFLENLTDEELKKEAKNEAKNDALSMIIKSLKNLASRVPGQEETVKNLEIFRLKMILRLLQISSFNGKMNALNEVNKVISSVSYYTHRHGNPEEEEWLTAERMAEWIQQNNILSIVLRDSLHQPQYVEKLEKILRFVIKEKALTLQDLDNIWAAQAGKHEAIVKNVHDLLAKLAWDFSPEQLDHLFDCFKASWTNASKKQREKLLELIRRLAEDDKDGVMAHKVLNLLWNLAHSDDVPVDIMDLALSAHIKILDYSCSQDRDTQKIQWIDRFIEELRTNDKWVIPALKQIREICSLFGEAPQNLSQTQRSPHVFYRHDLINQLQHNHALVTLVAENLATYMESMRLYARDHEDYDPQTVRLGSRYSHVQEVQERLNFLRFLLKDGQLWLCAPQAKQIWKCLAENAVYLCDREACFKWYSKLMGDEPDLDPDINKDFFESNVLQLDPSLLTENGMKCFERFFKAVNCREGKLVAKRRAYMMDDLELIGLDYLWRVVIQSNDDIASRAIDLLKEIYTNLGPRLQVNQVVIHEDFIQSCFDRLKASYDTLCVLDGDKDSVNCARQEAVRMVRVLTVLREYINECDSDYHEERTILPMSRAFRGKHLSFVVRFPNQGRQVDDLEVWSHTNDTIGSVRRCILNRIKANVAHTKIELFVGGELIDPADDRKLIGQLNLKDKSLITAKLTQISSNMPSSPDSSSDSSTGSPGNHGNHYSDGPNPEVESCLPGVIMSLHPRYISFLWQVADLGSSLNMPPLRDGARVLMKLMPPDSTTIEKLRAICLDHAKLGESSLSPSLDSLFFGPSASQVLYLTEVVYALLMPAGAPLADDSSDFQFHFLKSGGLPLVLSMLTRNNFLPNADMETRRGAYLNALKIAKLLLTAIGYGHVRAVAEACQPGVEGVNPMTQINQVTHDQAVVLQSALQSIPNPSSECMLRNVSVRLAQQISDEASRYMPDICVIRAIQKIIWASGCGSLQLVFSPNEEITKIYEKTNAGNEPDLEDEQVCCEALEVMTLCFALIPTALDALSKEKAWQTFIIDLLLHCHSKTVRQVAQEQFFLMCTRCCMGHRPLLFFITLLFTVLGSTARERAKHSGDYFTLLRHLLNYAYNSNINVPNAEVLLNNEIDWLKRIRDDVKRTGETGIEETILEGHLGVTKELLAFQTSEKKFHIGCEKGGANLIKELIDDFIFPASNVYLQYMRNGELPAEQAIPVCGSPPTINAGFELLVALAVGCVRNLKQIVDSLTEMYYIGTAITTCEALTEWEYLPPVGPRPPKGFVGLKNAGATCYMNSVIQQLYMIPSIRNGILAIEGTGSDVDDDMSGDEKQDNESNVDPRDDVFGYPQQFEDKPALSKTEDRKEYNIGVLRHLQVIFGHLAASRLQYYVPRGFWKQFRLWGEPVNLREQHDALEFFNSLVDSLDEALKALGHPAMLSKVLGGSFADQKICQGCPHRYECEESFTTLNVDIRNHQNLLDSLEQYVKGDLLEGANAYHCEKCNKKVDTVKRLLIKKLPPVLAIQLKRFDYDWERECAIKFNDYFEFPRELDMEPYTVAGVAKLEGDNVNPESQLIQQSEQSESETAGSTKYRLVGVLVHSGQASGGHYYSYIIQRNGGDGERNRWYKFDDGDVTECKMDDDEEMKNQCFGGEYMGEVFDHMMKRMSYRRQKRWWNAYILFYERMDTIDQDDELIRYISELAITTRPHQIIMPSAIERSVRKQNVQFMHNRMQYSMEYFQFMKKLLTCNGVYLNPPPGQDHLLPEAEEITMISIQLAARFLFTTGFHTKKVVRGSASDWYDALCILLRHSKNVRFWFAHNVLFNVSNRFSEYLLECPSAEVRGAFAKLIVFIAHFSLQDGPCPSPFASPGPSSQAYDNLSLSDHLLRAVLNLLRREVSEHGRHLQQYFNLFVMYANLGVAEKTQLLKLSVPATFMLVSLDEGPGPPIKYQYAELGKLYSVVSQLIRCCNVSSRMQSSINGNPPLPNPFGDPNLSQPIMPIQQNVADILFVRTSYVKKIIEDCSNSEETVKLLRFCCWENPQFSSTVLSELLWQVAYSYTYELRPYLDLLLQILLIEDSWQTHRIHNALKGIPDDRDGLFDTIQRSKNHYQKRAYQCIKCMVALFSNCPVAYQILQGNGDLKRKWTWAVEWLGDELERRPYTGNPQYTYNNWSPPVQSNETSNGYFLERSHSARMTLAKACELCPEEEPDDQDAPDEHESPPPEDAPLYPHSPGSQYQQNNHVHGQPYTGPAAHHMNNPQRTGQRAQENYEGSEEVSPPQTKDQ

binding result [1]: no binding
B1: GFP-Gal8 (other, UniProt O00214 1-317, looked up)
chain: MMLSLNNLQNIIYNPVIPFVGTIPDQLDPGTLIVIRGHVPSDADRFQVDLQNGSSMKPRADVAFHFNPRFKRAGCIVCNTLINEKWGREEITYDTPFKREKSFEIVIMVLKDKFQVAVNGKHTLLYGHRIGPEKIDTLGIYGKVNIHSIGFSFSSDLQSTQASSLELTEISRENVPKSGTPQLRLPFAARLNTPMGPGRTVVVKGEVNANAKSFNVDLLAGKSKDIALHLNPRLNIKAFVRNSFLQESWGEEERNITSFPFSPGMYFEMIIYCDVREFKVAVNGVHSLEYKHRFKELSSIDTLEINGDIHLLEVRSW
notes: also called Galectin 8; GFP-tagged galectin; not shown: GFP

binding result [2]: binds | binding result [3]: no binding
B2: FLAG-Gal9^R65A/R239A (other, UniProt O00182-2 1-323, looked up)
chain: MAFSGSQAPYLSPAVPFSGTIQGGLQDGLQITVNGTVLSSSGTRFAVNFQTGFSGNDIAFHFNPAFEDGGYVVCNTRQNGSWGPEERKTHMPFQKGMPFDLCFLVQSSDFKVMVNGILFVQYFHRVPFHRVDTISVNGSVQLSYISFQPPGVWPANPAPITQTVIHTVQSAPGQMFSTPAIPPMMYPHPAYPMPFITTILGGLYPSKSILLSGTVLPSAQRFHINLCSGNHIAFHLNPAFDENAVVRNTQIDNSWGSEERSLPRKMPFVRGQSFSVWILCEAHCLKVAVDGQHLFEYYHRLRNLPTINRLEVGGDIQLTHVQT
notes: also called double mutant; glycan recognition mutant; not shown: FLAG tag

Reference: patent publication US20210205286A1 (UNM RAINFOREST INNOVATIONS, published 2021)
